The values that follow come from publication PMC6922461.

This experiment has as its target trivalent Strep-Tactin-SpyCatcher.

B1: Siglec-14 with N-terminal Strep-tag II, on THP-1 cells (receptor)
chain: SAWSHPQFEKEKPVYELQVQKSVTVQEGLCVLVPCSFSYPWRSWYSSPPLYVYWFRDGEIPYYAEVVATNNPDRRVKPETQGRFRLLGDVQKKNCSLSIGDARMEDTGSYFFRVERGRDVKYSYQQNKLNLEVTALIEKPDIHFLEPLESGRPTRLSCSLPGSCEAGPPLTFSWTGNALSPLDPETTRSSELTLTPRPEDHGTNLTCQVKRQGAQVTTERTVQLNVSYAPQNLAISIFFRNGTGTALRILSNGMSVPIQEGQSLFLACTVDSNPPASLSWFREGKALNPSQTSMSGTLELPNIGAREGGEFTCRVQHPLGSQHLSFILSVQRSSSSCICVTEKQQGSWPLVLTLIRGALMGAGFLLTYGLTWIYYTRCGGPQQSRAERPG
Turning to B1, the IL-8 secretion of THP-1 Siglec-14–Strep-tag II DAP12 cells against Strep-tag II–binding sites of trivalent generic ligand per CHO cell; mean EC50 (Strep-tag II–binding sites per cell) worked out at 200000.
